According to patent publication US20060015952A1, “Screening assays and methods of tumor treatment” (GENENTECH, INC., priority 2003, published 2006):
Marks after values point to notes of the source that are not given here.

Key:
[1] = molecular target: T1, porcine, platelet-derived TGF-beta2 (Sus scrofa, UniProt P09858); assay: Immunoprecipitation of 125I-TGF-beta2; format: binding; details: 2 μg purified monoclonal antibody
T1 construct: porcine, platelet-derived ^125I-TGF-beta2; purchased R & D Systems; host or cells: porcine platelets
T1 sequence (P09858 303-414 limits assumed): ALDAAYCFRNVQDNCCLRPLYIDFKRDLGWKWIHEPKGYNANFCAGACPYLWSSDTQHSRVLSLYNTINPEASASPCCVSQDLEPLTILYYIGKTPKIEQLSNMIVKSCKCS
Procedure: (§1) The specificity of anti-TGF-beta monoclonal antibodies was also evaluated by their ability to immunoprecipitate ^125I-rTGF-beta1 or porcine, platelet-derived ^125I-TGF-beta2 (R & D Systems, Minneapolis, Minn.; specific activity 103.4 μCi/μg). Two μg of purified monoclonal antibody was incubated with 5×10^4 CPM of ^125I-rTGF-beta1 or ^125I-TGF-beta2 for two hours at 22° C. The immunocomplexes were pelleted with protein A-SEPHAROSE™ bead-formed agarose-based gel filtration matrix (Repligen, Cambridge, Mass.) coated with rabbit anti-mouse IgG (Boehringer Mannheim Biochemicals, Indianapolis, Ind.) and subsequently washed 3× with PBST. The complexes were dissociated from the protein A-SEPHAROSE™ bead-formed agarose-based gel filtration matrix with reducing sample buffer and electrophoresed into 12% SDS-polyacrylamide gel (SDS-PAGE) and exposed to autoradiography.

[2] = molecular target: T2, TGF-beta1 (Homo sapiens, UniProt P01137); assay: Affinity determination, solid-phase radioimmunoassay / competitive inhibition, Scatchard analysis; format: binding; details: competitive inhibition assay
T2 construct: made in house
T2 sequence (P01137 279-390 limits assumed): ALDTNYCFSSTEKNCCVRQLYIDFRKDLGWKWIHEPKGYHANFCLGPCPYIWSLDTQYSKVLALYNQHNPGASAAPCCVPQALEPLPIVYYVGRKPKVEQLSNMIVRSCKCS
Procedure: The solid-phase radioimmunoassay procedure described by Mariani et al, J. Immunol. Methods, 71: 43 (1984) was used to determine the affinities of the TGF-beta-specific monoclonal antibodies. Briefly, purified anti-TGF-beta monoclonal antibodies were coated on IMMUNLON™ 2 “REMOVAWELL”™ strips in pH 9.6 carbonate buffer for 18 hours at 4° C. The wells were washed and blocked as described above. 40,000 CPM/well of either ^125I-rTGF-beta1 or porcine ^125I-TGF-beta2 (R & D Systems), in 50 μl PBSG, was added to 2-fold serial dilutions of non-labeled rTGF-beta1 or porcine TGF-beta2 ranging from 2500 to 9.7 ng/well, in 50 μl PBSG. The resulting mixture was incubated for 18 hours at 4° C. The wells were washed and counted as described above and the affinity constants determined by Scatchard analysis (Munson and Pollard, Anal. Biochem., 107: 220 (1980)), which yields similar results as the non-linear regression analysis of Antoni and Mariani, J. Immunol. Meth., 83: 61 (1985).

[3] = molecular target: T3, TGF-beta1 dimer (nonreduced) form (Homo sapiens, UniProt P01137); assay: Immunoblot analysis with rTGF-beta1; format: binding
T3 construct: made in house
T3 sequence (P01137 279-390 limits assumed): as above
Procedure: One μg/lane of rTGF-beta1 was electrophoresed in 12% SDS-PAGE using non-reducing sample buffer to determine the reactivities of the various monoclonal antibodies with the dimer forms of rTGF-beta1. The peptides were transblotted onto nitrocellulose paper and probed with the appropriate monoclonal antibody conjugated with HRP. Bound antibody was visualized using the insoluble substrate 4-chloro-1-naphthol (Kirkegaard and Perry, Gathersburg, Md.). The reaction was stopped after 15 minutes by exhaustive washing with distilled water and the immunoblots were dried and photographed.

[4] = tested on: 4T1 tumor cells; assay: 4T1 mouse mammary carcinoma model; format: in vivo
Procedure: In a first set of experiments, 4T1 cells were derived from a single spontaneously arising mammary tumor from a BALB/cfC3H mouse. Primary 4T1 tumor cells were injected into mammary fat pads of immunocompetent BALB/c mice One week after injection, palpable primary tumors were observed. The tumor spontaneously metastasized into the lung (about two week after injection), liver and spleen (about three weeks after injection) and bone (between about 4 and 5 weeks after injection).
The animals were treated with 15 mg/kg, 25 mg/kg and 43 mg/kg doses of an anti-TGF-β antibody (2G7). Tests were carried out at day 0, 1, 2, and 1 and 2 weeks after injection of cancer cells.

[5] = tested on: F2-1282 tumor cell line; assay: Trastuzumab-sensitive Her2+ breast cancer mouse model; format: in vivo; details: 25 mg/kg at day 0
Procedure: (§2) Epithelial cells from trastuzumab-sensitive (F2-1282) and trastuzumab-resistant (Fo5) tumor cell lines were injected into mammary fat pads of immunocompetent mice.

[6] = tested on: Fo5 tumor cell line; assay: Trastuzumab-resistant Her2+ breast cancer mouse model; format: in vivo; details: 25 mg/kg at day 0
Procedure: as §2

[7] = tested on: Her2+ epithelial cells; assay: Metastasis from Her2+ epithelial cells (non-surface lung tumors); format: in vivo, mouse
Procedure: as §2
Metastasis from such cells produces non-surface lung tumors (images not shown), the incidence and growth of which are not inhibited by anti-TGF-β antibody treatment.

[8] = tested on: PyMT tumors; assay: PyMT tumor mouse model of breast cancer; format: in vivo; details: relative to IgG control
Procedure: This is a mouse model of breast cancer caused by expression of the polyoma middle T oncoprotein (PyMT) in the mammary epithelium. Primary tumor cells from PyMT tumors were injected (2 million or 5 million cells) into the mammary fat pad of a recipient mouse. The tumor developed was then passaged in a large number of further mice.

[9] = tested on: B16-F10; assay: Mouse model of metastatic melanoma, B16-F10 subline; format: in vivo; details: about 30 mg/kg
Procedure: (§3) This study used B16-F10 and B16-BL6 metastatic melanoma sublines, subcutaneously injected into immunocompetent mice, to test the effect of anti-TGF-β antibodies (2G7) on primary and secondary melanoma. In particular, C57Black 6 mice were injected subcutaneously with 500,000 tumor cells. The primary tumor developed was removed at day 14, and the mice were sacrificed around day 28. The anti-TGF-β antibody concentration was approximately 30 mg/kg. The B16-F10 subline is known to be able to colonize bone if introduced into the bone by direct injection (not as a result of subcutaneous injection). The B16-BL6 subline is metastatic to the lung.

[10] = tested on: B16-BL6; assay: Mouse model of metastatic melanoma, B16-BL6 subline; format: in vivo; details: about 30 mg/kg
Procedure: as §3

[11] = tested on: B16-F10 and B16-BL6 metastatic melanoma sublines; assay: Mouse model of metastatic melanoma, secondary lung tumors; format: in vivo; details: approximately 30 mg/kg
Procedure: as §3

[12] = molecular target: rTGF-beta1 (Homo sapiens, UniProt P01137); assay: Immunoprecipitation of 125I-rTGF-beta1; format: binding; set-up: made in house; details: 2 μg purified monoclonal antibody
Chain of rTGF-beta1 (P01137 279-390 limits assumed): as above
Procedure: as §1

[13] = early treatment (5 weeks after injection of cells)
[14] = mice injected with tumor cells, relative to mice with tumors treated with control antibodies
[15] = mice without tumor cells, relative to control mice without tumors

B1: 2G7: murine anti-TGF-beta monoclonal antibody; VL and VH SEQ ID Nos. 1 and 2 (antibody, listed as Mus musculus, V domains shown)
VH: QVXLXQSGAELVRPGTSVKVSCKASGYAFTNYLIEWVKQRPGQGLEWIGVNNPGSGGSNYNEKFKGKATLTADKSSSTAYMQLSSLTSDDSAVYFCARSGGFYFDYWGQGTTQSPSPQPKRRAH
VL: DIMMTQSPSSLAVSAGEKVTMSCKSSQSVLYSSNQKNYLAWYQQKPGQSPKLLIYWASTRESGVPDRFTGSGSGTDFTLTISSVQAEDLAVYYCHQYLSSDTFGGGTKLEIKRTVA
modifications: not fully specified; Xaa 3, 5 Unknown amino acid
immunoprecipitation of 125I-TGF-beta2 (autoradiograph) [1]: immunoprecipitated ^125I-TGF-beta2 to any measurable degree
affinity of interaction between TGF-beta1 and the monoclonal antibody [2]: 1.2e+08 L/mol
band strength in indirect immunoblot ([3]; nonreduced TGF-beta1 dimer): much stronger band than either 4A11 or 12H5
reactivity in indirect immunoblot with TGF-beta1 dimer ([3]; nonreduced form): reacted
results of 25-mg/kg dose versus 15-mg/kg dose ([4]; 25 mg/kg vs 15 mg/kg, data not shown): better results than the 15-mg/kg dose
results of 25-mg/kg versus 43-mg/kg doses ([4]; 25 mg/kg vs 43 mg/kg): no significant difference
size of primary tumor ([4]; 43-mg/kg dose): transiently decreased
systemic levels of VEGF ([4]; 43-mg/kg dose): reduced
histology scores (grade and number of lobes affected) of secondary lung tumors [4, 13]: decreased
volume of secondary lung tumors [4, 13]: decreased
weight of secondary lung tumors [4, 13]: decreased
breast tumor-induced bone destruction ([4]; early treatment (5 weeks after injection of tumor cells)): inhibited certain parameters of breast tumor-induced bone destruction
BS/BV [4, 14]: −6.6%
BV/TV [4, 14]: +14.3%
Mineral density [4, 14]: +6.3%
Trabecular number [4, 14]: +6.5%**
Trabecular thickness [4, 14]: +7.2%
BS/BV [4, 15]: ns
BV/TV [4, 15]: −4.8%
Mineral density [4, 15]: ns
Trabecular number [4, 15]: −2.8%*
Trabecular thickness [4, 15]: ns
size of primary tumor [5]: increased
systemic VEGF levels [5]: increased
size of primary tumor [6]: increased
systemic VEGF levels [6]: increased
incidence and growth of non-surface lung tumors [7]: not inhibited
primary tumor growth [8]: decreased
survival of mice with melanoma [9]: increased
survival of mice with melanoma ([9]; listed as anti-TGF-β antibody): increases
survival of mice with melanoma [10]: increased
survival of mice with melanoma ([10]; listed as anti-TGF-β antibody): increases
incidence of metastatic lung tumor [11]: significantly decreased
number of metastatic lung tumor [11]: significantly decreased
incidence of metastatic lung tumor ([11]; listed as anti-TGF-β antibody): decreases
number of metastatic lung tumor ([11]; listed as anti-TGF-β antibody): decreases
immunoprecipitation of 125I-rTGF-beta1 (autoradiograph) [12]: immunoprecipitated equivalent amounts
